Results: patent US20220186223, “T-LYMPHOCYTE BINDING APTAMERS” (Aummune Ltd., published 2022)

B1: CS8 (ssDNA)
DNA: CCCTTACCCCTTTTAGGTCTGCTTAGGATTGCGAAAAAAG
modifications: synthesized with 5' CpG motif having 5 PS linkages (extension not in ref)
B2: CS8c (CS8cut) (ssDNA)
DNA: CTTTTAGGTCTGCTTAGGATTGCGAAAAAAG
modifications: synthesized with 5' CpG motif having 5 PS linkages (extension not in ref)
B3: CS9 (ssDNA)
DNA: TTGTAAGGACTGCTTAGGATTGCGAAAACAATATTCGTAT
modifications: synthesized with 5' CpG motif having 5 PS linkages (extension not in ref)
B4: CS7 (ssDNA)
DNA: CATTTCATAGGGCTGCTTAGGATTGCGAAGGTAATGCCAG
modifications: synthesized with 5' CpG motif having 5 PS linkages (extension not in ref)

The binders below were run against CD3 epsilon (CD3ε), recombinant extracellular Fc chimera (Homo sapiens, UniProt P07766 P07766:23-126) (assay: HPLC size exclusion shift, 1 hr 37 C and 4 C). Conditions: tags: Fc chimera, His tag; Abcam ab220590; label: Cy5 via hybridised CpG'-Cy5 complementary strand.
Chain of CD3 epsilon (CD3ε), recombinant extracellular Fc chimera (P07766 23-126, change not shown, one chain of several): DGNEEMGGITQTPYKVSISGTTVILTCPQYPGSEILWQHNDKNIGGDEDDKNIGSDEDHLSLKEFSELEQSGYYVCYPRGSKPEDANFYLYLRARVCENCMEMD
Protocol: 1 μM of folded Cy5 labeled aptamer was mixed with 50 µL of protein to a final volume of 60 ul and incubated for 1 hr at 4° C. or 37° C. Next, to detect the Cy-labelled aptamers, samples were analyzed at 570 nm absorption via HPLC ProSEC 300S size exclusion column (Agilent).
Top five candidates (CS6, CS7, CS8, CS8c, and CS9 SEQ ID NO. 1-5) were synthesized with a 5(5′) phosphothioated CpG motif and assayed for Human CD3ε (hCD3ε) binding via the HPLC size exclusion column. In this method, the aptamers were labelled with Cy5 complementary sequence to the CpG site (Cy5-CpG′). Then, the folded-labelled candidates are incubated, each, with the CD3ε- recombinant protein or with negative control IgG1 (1 hr at 37° C. and 4° C.) and analyzed by HPLC ProSEC 300S size exclusion column (Agilent) at 570 nm absorption. Upon protein binding, the aptamer-protein complex has a greater mass than a free aptamer and as a result, the retention time (RT) at the column is expected to be shorter. Inversely, in the case of non-binding aptamer, the RT in the presence of protein will be the same as in the absence of the protein. As a control, PolyT sequence was used.

Binding result, binds:
B1
B2
B3
B4
